Patent US20240043521A1 (ARXX THERAPEUTICS, published 2024)

Key:
[1] = biological target: T1, human FcγRIIa-H (the high-affinity H131 variant) on Jurkat reporter cells (human, UniProt P12318 34-317); experiment: cell-based or functional assay
T1 sequence (looked up): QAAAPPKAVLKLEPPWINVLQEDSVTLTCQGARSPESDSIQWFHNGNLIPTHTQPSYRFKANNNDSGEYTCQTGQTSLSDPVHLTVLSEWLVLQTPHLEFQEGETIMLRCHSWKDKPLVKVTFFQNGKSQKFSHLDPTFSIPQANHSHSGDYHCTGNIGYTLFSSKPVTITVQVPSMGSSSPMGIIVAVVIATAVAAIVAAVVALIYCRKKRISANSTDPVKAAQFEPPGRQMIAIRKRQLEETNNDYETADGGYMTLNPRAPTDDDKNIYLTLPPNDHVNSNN

human S100A4 dimer = biological target: T2, human S100A4 dimer (Homo sapiens, UniProt P26447 1-101); experiment: SPR, Biacore T200, 25 C; S100A4 captured via anti-His, antibody as analyte (0.78-200 nM), 1:1 fit
T2 construct: In the SPR it was captured on an anti-His surface, so it carried a His tag; also called recombinant human S100A4 dimer
Method: Quantitative, kinetic analysis of the interactions between 14 humanized antibodies and 2 control antibodies with the human S100A4 dimer were performed using surface plasmon resonance (SPR).
The analysis was performed using a Biacore T200 instrument, at 25° C. analysis temperature, at a flow rate of 50 μl/min for quantitative kinetic interaction analyses.

[2] = biological target: A6 (lane under "Human S100 Proteins") (Homo sapiens, UniProt P06703); experiment: Western blot on human S100 proteins
[3] = biological target: T3, A8 (lane under "Human S100 Proteins"); experiment: Western blot on human S100 proteins
T3 construct: also called human S100A8
T3 chain: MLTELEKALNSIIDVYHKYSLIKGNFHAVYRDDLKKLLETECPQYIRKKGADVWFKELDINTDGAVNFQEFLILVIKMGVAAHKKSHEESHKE

T2 sequence (P26447 whole entry, one chain of several): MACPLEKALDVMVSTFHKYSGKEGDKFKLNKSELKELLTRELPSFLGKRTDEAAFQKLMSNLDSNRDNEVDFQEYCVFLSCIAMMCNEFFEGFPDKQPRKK

B1: AX-202, a humanized IgG4 monoclonal anti-S100A4 antibody (antibody)
heavy: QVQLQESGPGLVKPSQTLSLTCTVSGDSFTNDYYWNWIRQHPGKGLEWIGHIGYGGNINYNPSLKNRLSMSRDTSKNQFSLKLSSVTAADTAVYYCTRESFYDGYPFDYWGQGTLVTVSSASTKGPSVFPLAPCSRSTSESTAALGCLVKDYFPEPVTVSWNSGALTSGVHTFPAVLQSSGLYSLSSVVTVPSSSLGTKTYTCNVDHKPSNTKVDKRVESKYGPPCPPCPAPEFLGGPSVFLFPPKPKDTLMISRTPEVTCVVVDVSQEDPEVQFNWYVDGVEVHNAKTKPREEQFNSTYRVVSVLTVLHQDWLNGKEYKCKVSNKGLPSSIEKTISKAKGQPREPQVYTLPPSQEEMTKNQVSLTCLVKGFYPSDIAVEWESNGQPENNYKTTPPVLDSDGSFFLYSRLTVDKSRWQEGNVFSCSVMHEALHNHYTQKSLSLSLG
light: DIQMTQSPSSLSASVGDRVTITCRASQDIRNYLNWYQQKPGKALKLLLYYTSRLHSGVPSRFSGSGSGTDYTLTISSLQPEDFATYYCQQGNSLPRTFGGGTKVEIKRTVAAPSVFIFPPSDEQLKSGTASVVCLLNNFYPREAKVQWKVDNALQSGNSQESVTEQDSKDSTYSLSSTLTLSKADYEKHKVYACEVTHQGLSSPVTKSFNRGEC
FcγRIIa-H ADCP reporter; potency to induce FcγR activation against the same antibody with a human IgG1 scaffold [1]: ~3 fold lower

B2: 6B12, mouse monoclonal IgG1 anti-S100A4 antibody (antibody, V domains shown)
VH: DVQLQESGPGLVKPSQSLSLTCSVTGDSFTNDYYWNWIRQFPGSKLEWMGHIGYGGNINYNPSLKNRISITRDTSKNQFFLRLTSVTTEDTATYYCTRESFYDGYPFDYWGQGTLVTVSA
VL: DIQMTQTTSSLSASLGDRVTISCRASQDIRNYLNWYQQRPGGTLKLLIYYTSRLHSGVPSRFSGSGSGTDYSLTISNLEQEDIATYFCQQGNSLPRTFGGGTKLEIK
notes: Mouse IgG1; also called 6B12 mIgG1; 6B12 IgG1
FcγRIIa-H ADCP reporter; fold higher activation than AX-202 hIgG4, immune complex with S100A4 dimer [1]: 3.23 fold
FcγRIIa-H ADCP reporter; fold higher activation than AX-202 hIgG4, immune complex with S100A4 multimer [1]: 2.87 fold
Kd (human S100A4 dimer): 1.65 nM
koff (human S100A4 dimer): 0.000206 s⁻¹
kon (human S100A4 dimer): 124000 M⁻¹ s⁻¹

B3: VH0 VL0: the VH and VL regions of 6B12 comprised in a humanized IgG4 isotype framework (antibody, V domains shown)
VH: DVQLQESGPGLVKPSQSLSLTCSVTGDSFTNDYYWNWIRQFPGSKLEWMGHIGYGGNINYNPSLKNRISITRDTSKNQFFLRLTSVTTEDTATYYCTRESFYDGYPFDYWGQGTLVTVSA
VL: DIQMTQTTSSLSASLGDRVTISCRASQDIRNYLNWYQQRPGGTLKLLIYYTSRLHSGVPSRFSGSGSGTDYSLTISNLEQEDIATYFCQQGNSLPRTFGGGTKLEIK
Kd (human S100A4 dimer): 0.958 nM
koff (human S100A4 dimer): 0.000219 s⁻¹
kon (human S100A4 dimer): 229000 M⁻¹ s⁻¹

B4: VH0 VL3 (antibody, V domains shown)
VH: DVQLQESGPGLVKPSQSLSLTCSVTGDSFTNDYYWNWIRQFPGSKLEWMGHIGYGGNINYNPSLKNRISITRDTSKNQFFLRLTSVTTEDTATYYCTRESFYDGYPFDYWGQGTLVTVSA
VL: DIQMTQSPSSLSASVGDRVTITCRASQDIRNYLNWYQQKPGKAPKLLLYYTSRLHSGVPSRFSGSGSGTDYTLTISSLQPEDFATYYCQQGNSLPRTFGGGTKVEIK
Kd (human S100A4 dimer): 1.46 nM
koff (human S100A4 dimer): 0.000279 s⁻¹
kon (human S100A4 dimer): 191000 M⁻¹ s⁻¹

B5: VH1 VL0 (antibody, V domains shown)
VH: QVQLQESGPGLVKPSQTLSLTCTVSGDSFTNDYYWNWIRQHPGKGLEWIGHIGYGGNINYNPSLKNRLSMSRDTSKNQFSLKLSSVTAADTAVYYCTRESFYDGYPFDYWGQGTLVTVSS
VL: DIQMTQTTSSLSASLGDRVTISCRASQDIRNYLNWYQQRPGGTLKLLIYYTSRLHSGVPSRFSGSGSGTDYSLTISNLEQEDIATYFCQQGNSLPRTFGGGTKLEIK
Kd (human S100A4 dimer): 1.15 nM
koff (human S100A4 dimer): 0.000361 s⁻¹
kon (human S100A4 dimer): 313000 M⁻¹ s⁻¹

B6: VH1 VL3_L44Leu (antibody, V domains shown)
VH: QVQLQESGPGLVKPSQTLSLTCTVSGDSFTNDYYWNWIRQHPGKGLEWIGHIGYGGNINYNPSLKNRLSMSRDTSKNQFSLKLSSVTAADTAVYYCTRESFYDGYPFDYWGQGTLVTVSS
VL: DIQMTQSPSSLSASVGDRVTITCRASQDIRNYLNWYQQKPGKALKLLLYYTSRLHSGVPSRFSGSGSGTDYTLTISSLQPEDFATYYCQQGNSLPRTFGGGTKVEIK
notes: Humanized antibody; also called VH1:VL3_Leu44; Leu44
binding result [2]: no binding
binding result [3]: no binding
Kd (human S100A4 dimer): 2.25 nM
koff (human S100A4 dimer): 0.000537 s⁻¹
kon (human S100A4 dimer): 239000 M⁻¹ s⁻¹

B7: VH1 VL3 (antibody, V domains shown)
VH: QVQLQESGPGLVKPSQTLSLTCTVSGDSFTNDYYWNWIRQHPGKGLEWIGHIGYGGNINYNPSLKNRLSMSRDTSKNQFSLKLSSVTAADTAVYYCTRESFYDGYPFDYWGQGTLVTVSS
VL: DIQMTQSPSSLSASVGDRVTITCRASQDIRNYLNWYQQKPGKAPKLLLYYTSRLHSGVPSRFSGSGSGTDYTLTISSLQPEDFATYYCQQGNSLPRTFGGGTKVEIK
notes: Humanized antibody
Kd (human S100A4 dimer): 3.47 nM
koff (human S100A4 dimer): 0.000674 s⁻¹
kon (human S100A4 dimer): 194000 M⁻¹ s⁻¹

B8: VH1 VL3_L42Gly+L44Leu (antibody, V domains shown)
VH: QVQLQESGPGLVKPSQTLSLTCTVSGDSFTNDYYWNWIRQHPGKGLEWIGHIGYGGNINYNPSLKNRLSMSRDTSKNQFSLKLSSVTAADTAVYYCTRESFYDGYPFDYWGQGTLVTVSS
VL: DIQMTQSPSSLSASVGDRVTITCRASQDIRNYLNWYQQKPGGALKLLLYYTSRLHSGVPSRFSGSGSGTDYTLTISSLQPEDFATYYCQQGNSLPRTFGGGTKVEIK
Kd (human S100A4 dimer): 1.99 nM
koff (human S100A4 dimer): 0.000523 s⁻¹
kon (human S100A4 dimer): 263000 M⁻¹ s⁻¹

B9: VH1 VL3_L43Thr (antibody, V domains shown)
VH: QVQLQESGPGLVKPSQTLSLTCTVSGDSFTNDYYWNWIRQHPGKGLEWIGHIGYGGNINYNPSLKNRLSMSRDTSKNQFSLKLSSVTAADTAVYYCTRESFYDGYPFDYWGQGTLVTVSS
VL: DIQMTQSPSSLSASVGDRVTITCRASQDIRNYLNWYQQKPGKTPKLLLYYTSRLHSGVPSRFSGSGSGTDYTLTISSLQPEDFATYYCQQGNSLPRTFGGGTKVEIK
Kd (human S100A4 dimer): 4.72 nM
koff (human S100A4 dimer): 0.000882 s⁻¹
kon (human S100A4 dimer): 187000 M⁻¹ s⁻¹

B10: VH1_H43Ser + H44Lys VL3_L44Leu (antibody, V domains shown)
VH: QVQLQESGPGLVKPSQTLSLTCTVSGDSFTNDYYWNWIRQHPGSKLEWIGHIGYGGNINYNPSLKNRLSMSRDTSKNQFSLKLSSVTAADTAVYYCTRESFYDGYPFDYWGQGTLVTVSS
VL: DIQMTQSPSSLSASVGDRVTITCRASQDIRNYLNWYQQKPGKALKLLLYYTSRLHSGVPSRFSGSGSGTDYTLTISSLQPEDFATYYCQQGNSLPRTFGGGTKVEIK
Kd (human S100A4 dimer): 2.15 nM
koff (human S100A4 dimer): 0.000507 s⁻¹
kon (human S100A4 dimer): 236000 M⁻¹ s⁻¹

B11: VH1_H40Phe VL3 (antibody, V domains shown)
VH: QVQLQESGPGLVKPSQTLSLTCTVSGDSFTNDYYWNWIRQFPGKGLEWIGHIGYGGNINYNPSLKNRLSMSRDTSKNQFSLKLSSVTAADTAVYYCTRESFYDGYPFDYWGQGTLVTVSS
VL: DIQMTQSPSSLSASVGDRVTITCRASQDIRNYLNWYQQKPGKAPKLLLYYTSRLHSGVPSRFSGSGSGTDYTLTISSLQPEDFATYYCQQGNSLPRTFGGGTKVEIK
notes: Humanized antibody; also called VH1_40Phe:VL3; Phe40
binding result [2]: no binding
binding result [3]: no binding
Kd (human S100A4 dimer): 2.65 nM
koff (human S100A4 dimer): 0.000576 s⁻¹
kon (human S100A4 dimer): 217000 M⁻¹ s⁻¹

B12: VH1_H43Ser VL3 (antibody, V domains shown)
VH: QVQLQESGPGLVKPSQTLSLTCTVSGDSFTNDYYWNWIRQHPGSGLEWIGHIGYGGNINYNPSLKNRLSMSRDTSKNQFSLKLSSVTAADTAVYYCTRESFYDGYPFDYWGQGTLVTVSS
VL: DIQMTQSPSSLSASVGDRVTITCRASQDIRNYLNWYQQKPGKAPKLLLYYTSRLHSGVPSRFSGSGSGTDYTLTISSLQPEDFATYYCQQGNSLPRTFGGGTKVEIK
Kd (human S100A4 dimer): 3.21 nM
koff (human S100A4 dimer): 0.000679 s⁻¹
kon (human S100A4 dimer): 211000 M⁻¹ s⁻¹

B13: VH1_H43Ser + H44Lys VL3 (antibody, V domains shown)
VH: QVQLQESGPGLVKPSQTLSLTCTVSGDSFTNDYYWNWIRQHPGSKLEWIGHIGYGGNINYNPSLKNRLSMSRDTSKNQFSLKLSSVTAADTAVYYCTRESFYDGYPFDYWGQGTLVTVSS
VL: DIQMTQSPSSLSASVGDRVTITCRASQDIRNYLNWYQQKPGKAPKLLLYYTSRLHSGVPSRFSGSGSGTDYTLTISSLQPEDFATYYCQQGNSLPRTFGGGTKVEIK
Kd (human S100A4 dimer): 2.84 nM
koff (human S100A4 dimer): 0.000596 s⁻¹
kon (human S100A4 dimer): 210000 M⁻¹ s⁻¹

B14: VH1_H40Phe + H44Lys VL3 (antibody, V domains shown)
VH: QVQLQESGPGLVKPSQTLSLTCTVSGDSFTNDYYWNWIRQFPGKKLEWIGHIGYGGNINYNPSLKNRLSMSRDTSKNQFSLKLSSVTAADTAVYYCTRESFYDGYPFDYWGQGTLVTVSS
VL: DIQMTQSPSSLSASVGDRVTITCRASQDIRNYLNWYQQKPGKAPKLLLYYTSRLHSGVPSRFSGSGSGTDYTLTISSLQPEDFATYYCQQGNSLPRTFGGGTKVEIK
Kd (human S100A4 dimer): 2.43 nM
koff (human S100A4 dimer): 0.00056 s⁻¹
kon (human S100A4 dimer): 231000 M⁻¹ s⁻¹

B15: VH1_H44Lys VL3 (antibody, V domains shown)
VH: QVQLQESGPGLVKPSQTLSLTCTVSGDSFTNDYYWNWIRQHPGKKLEWIGHIGYGGNINYNPSLKNRLSMSRDTSKNQFSLKLSSVTAADTAVYYCTRESFYDGYPFDYWGQGTLVTVSS
VL: DIQMTQSPSSLSASVGDRVTITCRASQDIRNYLNWYQQKPGKAPKLLLYYTSRLHSGVPSRFSGSGSGTDYTLTISSLQPEDFATYYCQQGNSLPRTFGGGTKVEIK
Kd (human S100A4 dimer): 2.77 nM
koff (human S100A4 dimer): 0.000592 s⁻¹
kon (human S100A4 dimer): 213000 M⁻¹ s⁻¹

B16: VH1 VL3_L42Gly (antibody, V domains shown)
VH: QVQLQESGPGLVKPSQTLSLTCTVSGDSFTNDYYWNWIRQHPGKGLEWIGHIGYGGNINYNPSLKNRLSMSRDTSKNQFSLKLSSVTAADTAVYYCTRESFYDGYPFDYWGQGTLVTVSS
VL: DIQMTQSPSSLSASVGDRVTITCRASQDIRNYLNWYQQKPGGAPKLLLYYTSRLHSGVPSRFSGSGSGTDYTLTISSLQPEDFATYYCQQGNSLPRTFGGGTKVEIK
Kd (human S100A4 dimer): 3 nM
koff (human S100A4 dimer): 0.00064 s⁻¹
kon (human S100A4 dimer): 213000 M⁻¹ s⁻¹

B17: VH1_H43Ser VL3_L44Leu (antibody, V domains shown)
VH: QVQLQESGPGLVKPSQTLSLTCTVSGDSFTNDYYWNWIRQHPGSGLEWIGHIGYGGNINYNPSLKNRLSMSRDTSKNQFSLKLSSVTAADTAVYYCTRESFYDGYPFDYWGQGTLVTVSS
VL: DIQMTQSPSSLSASVGDRVTITCRASQDIRNYLNWYQQKPGKALKLLLYYTSRLHSGVPSRFSGSGSGTDYTLTISSLQPEDFATYYCQQGNSLPRTFGGGTKVEIK
Kd (human S100A4 dimer): 2.38 nM
koff (human S100A4 dimer): 0.000512 s⁻¹
kon (human S100A4 dimer): 215000 M⁻¹ s⁻¹
